Reference: US20210155689A1 (SHANGHAI PHARMAEXPLORER, published 2021)

Biological target: T1, human LAG-3 on cells (HEK293-hLAG-3 stable cell line) (human, UniProt P18627 23-525)
T1 sequence: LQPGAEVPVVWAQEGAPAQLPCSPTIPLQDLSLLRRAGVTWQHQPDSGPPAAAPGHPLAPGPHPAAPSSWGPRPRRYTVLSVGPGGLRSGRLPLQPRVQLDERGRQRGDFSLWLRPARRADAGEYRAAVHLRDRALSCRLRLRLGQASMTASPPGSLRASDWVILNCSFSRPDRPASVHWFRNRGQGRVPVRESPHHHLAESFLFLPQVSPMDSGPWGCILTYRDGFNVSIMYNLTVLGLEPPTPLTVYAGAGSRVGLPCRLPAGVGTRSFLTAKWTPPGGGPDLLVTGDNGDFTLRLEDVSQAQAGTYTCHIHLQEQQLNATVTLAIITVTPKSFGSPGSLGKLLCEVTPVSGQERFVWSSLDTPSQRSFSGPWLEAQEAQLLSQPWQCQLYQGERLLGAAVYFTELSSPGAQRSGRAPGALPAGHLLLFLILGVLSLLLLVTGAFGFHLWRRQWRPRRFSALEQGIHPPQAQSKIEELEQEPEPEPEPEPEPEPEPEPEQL
Experiment: FACS, HEK293-hLAG-3, antibody 40.000 nM
Source text: The pIRES plasmid with the monkey-derived full-length gene was transfected into the HEK293 cell line to construct a HEK293 stable cell line containing monkey LAG-3 (herein referred to as HEK293-cLAG-3 stable cell line). The HEK293-hLAG-3 stable cell line and HEK293-cLAG-3 stable cell line were expanded in a T-75 cell culture flask to a 90% confluence. The medium was aspirated, and the cells were washed with HBSS (Hanks' Balanced Salt Solution) 1-2 times, then treated with a enzyme-free cell dissociation fluid (Versene solution: Life technology) and the cells were collected. The cells were washed with HBSS buffer for 1-2 times. After counted, the cells were diluted with HBSS to 1-2×10⁶ cells per ml, added with 1% goat serum blocking solution, incubated on ice for 20-30 minutes, and then washed with HBSS for 2 times by centrifugation. The collected cells were suspended in the FACS buffer (HBSS+1% BSA) to 2×10⁶ cells/ml, added as 100 microliters per well to a 96-well FACS reaction plate, added with 100 microliters per well of the antibody sample to be tested, incubated on ice for 1-2 hours. The plate was washed twice with the FACS buffer by centrifugation, added with 100 microliters of fluorescent (Alexa 488)-labeled secondary antibodies per well, and incubated on ice for 0.5-1.0 hours. The plate was washed 2-3 times with FACS buffer by centrifugation, added with 100 μl fixative solution (4% Paraformaldehyde) per well to suspend the cells. 5-10 minutes later, it was washed 1-2 times with FACS buffer by centrifugation. The cells were suspended with 100 microliters of FACS buffer, FACS (FACSCalibur, BD) was used for detection and the results were analyzed.

Row | Binder | Mean fluorescence intensity
1 | 405B8H3 mouse-human chimeric antibody (antibody, V domains shown, also called mAb103-405B8H3) VH: QVQLQQSGAELVRPGASVTLSCKASGYTFTDYEMHWVKQTPVHGLEWIGATDPETGNSAYNQKFKGKAIMTADKSSSTAYMELRSLTSEDSAVYYCISTGWNDWGQGTSLTVSS VL: DIKMTQSPSSMYASLGERVTITCKASQDINSYLSWFQQKPGKSPKTLIYRADRLLDGVPSRFSGSGSGQDYSLTISSLEYGDMGIYYCLQYDEFPYTFGGGTKLEIK | 158
2 | 409B11E12 mouse-human chimeric antibody (antibody, V domains shown, also called mAb104-409B11E12) VH: QVQLQQSGAELVRPGASVTLSCKASGYTFTDYEMHWVKQTTVHGLEWIGATDPETSYSAYNQKFKGKAILTADKSSSTAYMELRSLTSEDSAVYYCIATGWNDWGQGTSLTVSS VL: DLKMTQSPSSMYASLGERVTITCKASQDINSYLSWFQQKPGKSPKTLIYRANRLLDGVPSRFSGSGSGQDYSLTISSLEYEDMGIYYCLQYDEFPYTFGGGTKLEIK | 150
3 | 409D4E10 mouse-human chimeric antibody (antibody, V domains shown, also called mAb112-409D4E10) VH: QVQLQQSGAELVRPGASVTLSCKASGNTFTDYEMHWVKQTPVHGLEWIGATDPETDNTAYNQKFKGKAILTTDKSSSTAYMELRSLTSEDSAVYYCITSGWNDWGQGTSLTVSS VL: DIKMTQSPSSMYASLGERVTITCKASQDINSYLSWFQQKPGKSPKTLIYRANRLLDGVPSRFSGSGSGQDYSLTISSLEYEDMGIYYCLQYNEFPYTFGGGTKLEIK | 140
